Test results as given in patent US20260159601A1.

Target: human CD20 (human) (UniProt P11836)
Assay: flow cytometry on a human B-cell lymphoma cell line, 30 min at 4 C, detection with FITC-labeled F(ab)'2 goat anti-human Fc-gamma-specific antibody, median fluorescence intensity

human CD20 (human), sequence (P11836 whole entry): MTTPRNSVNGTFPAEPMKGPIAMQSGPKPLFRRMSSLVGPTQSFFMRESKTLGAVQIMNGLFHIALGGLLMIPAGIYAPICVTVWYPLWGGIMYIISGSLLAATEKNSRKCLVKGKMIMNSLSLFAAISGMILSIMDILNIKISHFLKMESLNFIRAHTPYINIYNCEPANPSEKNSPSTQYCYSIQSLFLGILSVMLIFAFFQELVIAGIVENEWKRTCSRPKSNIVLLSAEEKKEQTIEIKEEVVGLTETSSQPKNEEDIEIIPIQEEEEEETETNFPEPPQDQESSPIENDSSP

- EC50 (read off the curve): 5 nM
Substance: rituximab (antibody)
